Each block holds one binder with its values, some of them ahead of it.
How the values were obtained:
[1] = biological target: T1, transforming growth factor β1 (TGFβ1) (UniProt P01137 279-390); test: BioVeris ECL competition with a labeled competitor; grade ++ = apparent IC50 about 10-50 µM
Experimental: (§1) The resulting vectors were used to transform B. subtilis BG6006 host cells. Cultures were grown in 500 ml of MBD medium and the BBI species were purified essentially as described above and by Vogtentanz et al., 2007 (Protein Expr Purif 55:40-52 [2007]). BioVeris binding assays were performed essentially as outlined in Example 5 and by the manufacturer. Binding of the modified variant BBIs to their respective target proteins was measured using a BioVeris® binding assay, which is a competition assay that determines the binding of the modified variant BBIs to its target protein (e.g. VEGF, FGF5, TGFβ and TNFα) in the presence or absence of a labeled competitor. The competitor can be a labeled monoclonal antibody raised against the target protein or a labeled native receptor of the target protein. The electrochemiluminescent binding assays were performed essentially as described in Example 5. The apparent IC50s were determined from binding data by determining the concentration of the BBI species needed to reduce the BioVeris signal by one half. BBI scaffolds without the target binding peptide in the chymotrypsin inhibitory loop were used as negative controls.

[2] = biological target: T2, vascular endothelial growth factor (VEGF) (UniProt P15692-4 27-191, limits assumed, labeled with biotin for the BioVeris assay (sites not given)); test: BioVeris ECL competition with a labeled competitor; grade +++ = apparent IC50 about 2-10 µM
Experimental: as §1

[3] = biological target: T3, fibroblast growth factor 5 (FGF-5) (UniProt P12034 21-268, limits assumed); test: BioVeris ECL competition with a labeled competitor; negative control for FGF-5 binding
T3 sequence (looked up): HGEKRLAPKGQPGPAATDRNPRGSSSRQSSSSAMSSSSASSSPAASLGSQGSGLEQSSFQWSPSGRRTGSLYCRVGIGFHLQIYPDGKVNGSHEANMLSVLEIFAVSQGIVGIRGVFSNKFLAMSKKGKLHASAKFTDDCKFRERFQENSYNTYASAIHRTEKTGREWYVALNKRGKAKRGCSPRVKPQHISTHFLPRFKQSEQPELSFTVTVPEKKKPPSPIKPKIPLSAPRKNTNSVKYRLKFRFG
Experimental: as §1

[4] = biological target: T2, vascular endothelial growth factor …; test: BioVeris ECL competition with a labeled competitor; negative control for VEGF binding
Experimental: as §1

[5] = biological target: T1, transforming growth factor β1 (TGFβ1); test: BioVeris ECL competition with a labeled competitor; negative control for TGFβ binding
Experimental: as §1

[6] = biological target: T3, fibroblast growth factor 5 (FGF-5); test: BioVeris ECL competition with a labeled competitor; grade ++ = apparent IC50 about 10-50 µM
Experimental: as §1

[7] = biological target: T2, vascular endothelial growth factor …; test: as above
Experimental: as §1

[8] = biological target: T4, tumor necrosis factor α (TNFα) (UniProt P01375 77-233); test: BioVeris ECL competition with a labeled competitor; grade + = apparent IC50 about 50-250 µM
Experimental: as §1

[9] = biological target: T4, tumor necrosis factor α (TNFα); test: BioVeris ECL competition with a labeled competitor; grade ++ = apparent IC50 about 10-50 µM
Experimental: as §1

[10] = biological target: T4, tumor necrosis factor α (TNFα); test: BioVeris ECL competition with a labeled competitor; negative control for TNFα binding
Experimental: as §1

T1 sequence (P01137 279-390 limits assumed): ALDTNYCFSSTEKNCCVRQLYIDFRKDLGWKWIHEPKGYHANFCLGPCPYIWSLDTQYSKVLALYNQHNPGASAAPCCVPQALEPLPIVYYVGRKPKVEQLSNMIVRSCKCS
T4 sequence (P01375 77-233 limits assumed): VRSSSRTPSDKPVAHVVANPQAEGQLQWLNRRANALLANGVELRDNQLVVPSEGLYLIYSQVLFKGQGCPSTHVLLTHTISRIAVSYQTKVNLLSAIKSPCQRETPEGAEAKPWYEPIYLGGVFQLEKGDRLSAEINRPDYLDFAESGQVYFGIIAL
T2 sequence (P15692 other isoform, or with tags, fused parts or gaps limits assumed): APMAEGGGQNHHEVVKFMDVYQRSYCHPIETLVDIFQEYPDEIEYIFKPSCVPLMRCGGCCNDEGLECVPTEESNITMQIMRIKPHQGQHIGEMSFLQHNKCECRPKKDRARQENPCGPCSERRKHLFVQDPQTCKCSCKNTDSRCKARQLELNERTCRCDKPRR

IC50 [1]: 10 to 50 µM
B1: PEN3-Q-BBIt-TGFβ1 (designed binder)
chain: DPDDESSKPCCDQCICTKSNPPQCRCSDMRPNSCHSACKSCACPENINVLPCTCADITDFCYEPCKPSE
notes: also called BBIt-PEN3-Q-A13I-L29P-F50T-V52A

IC50 [2]: 2 to 10 µM
B2: BBtc-AV (Torresea cearensis Bowman Birk Inhibitor with CK37281 in the second protease inhibitory loop) (designed binder)
chain: DPSSKWEACCDRCACTKSIPPQCHCADIRLNSCHSACESCACYNLYGWTCRCFDITDFCYKPCSG
notes: also called BBItc-AV

IC50 [3]: > 250 µM | IC50 [4]: > 250 µM
B3: soybean Bowman-Birk Inhibitor (BBI), wild type (other)
chain: DDESSKPCCDQCACTKSNPPQCRCSDMRLNSCHSACKSCICALSYPAQCFCVDITDFCYEPCKPSEDDKEN
notes: Used as the negative control; also called sBBI; BBI-WT

IC50 [2]: 2 to 10 µM
B4: BBdb-AV (Dolichos biflorus Bowman Birk Inhibitor with CK37281 in the second protease inhibitory loop) (designed binder)
chain: DPSESSKPCCDQCACTKSIPPQCRCTDVRLNSCHSACSSCACYNLYGWTCVCVDMKDFCYEPCK
notes: also called BBIdb-AV

IC50 [2]: 2 to 10 µM
B6: BBIt-VEGKD-A13I-S25K-L29P-V52K (designed binder)
chain: DPDDESSKPCCDQCICTKSNPPQCRCKDMRPNSCHSACKSCICKYDLYWWCFCKDITDFCYEPCKPSE
notes: also called VegKD-Q

IC50 [5]: > 250 µM | IC50 [6]: 10 to 50 µM
B8: FGFps2-Q-BBIt-FGF-5 (designed binder)
chain: DPDDESSKPCCDQCICTKSNPPQCRCSDMRPNSCHSACKSCACTWIDSTPCTCADITDFCYEPCKPSE
notes: also called BBIt-FGFps2-Q-A13I-L29P-F50T-V52A

IC50 [6]: 10 to 50 µM
B9: MM007-Q-BBIt-FGF-5 (designed binder)
chain: DPDDESSKPCCDQCICTKSNPPQCRCSDMRPNSCHSACKSCACRTQPYPLCTCADITDFCYEPCKPSE
notes: also called BBIt-MM007-Q-A13I-L29P-F50T-V52A

IC50 [1]: 10 to 50 µM
B10: WTQ-Q-BBIt-TGFβ1 (designed binder)
chain: DPDDESSKPCCDQCICTKSNPPQCRCSDMRPNSCHSACKSCACWTQHIHNCTCADITDFCYEPCKPSE
notes: also called WTQ-BBIt-Q-TGF; BBIt-WTQ-Q-A13I-L29P-F50T-V52A

IC50 [1]: 10 to 50 µM
B11: MM021W-Q-BBIt-TGFβ1 (designed binder)
chain: DPDDESSKPCCDQCICTKSNPPQCRCSDMRPNSCHSACKSCACKHNVDWLCTCADITDFCYEPCKPSE
notes: also called BBIt-MM021W-Q-A13I-L29P-F50T-V52A

IC50 [7]: 10 to 50 µM
B20: BBIt-VEGF-V3-A13I-S25R-M27A-L29P-S31A-F50K-V52T (designed binder)
chain: DPDDESSKPCCDQCICTKSNPPQCRCRDARPNACHSACKSCACRPTGHSLCKCTDITDFCYEPCKPSE
notes: also called BBIt-AV-V3

IC50 [7]: 10 to 50 µM
B22: BBIt-VEGF-V6-A13I-S25R-M27A-L29P-S31A-F50K-V52T (designed binder)
chain: DPDDESSKPCCDQCICTKSNPPQCRCRDARPNACHSACKSCACPVTKRVHCKCTDITDFCYEPCKPSE
notes: also called BBIt-AV-V6

IC50 [2]: 2 to 10 µM
B23: BBIt-VEGF-V4-A13I-S25R-M27A-L29P-S31A-F50K-V52T (designed binder)
chain: DPDDESSKPCCDQCICTKSNPPQCRCRDARPNACHSACKSCACKHSAKAECKCTDITDFCYEPCKPSE
notes: also called BBIt-AV-V4

IC50 [2]: 2 to 10 µM
B24: BBIt-VEGF-V2-A13I-S25R-M27A-L29P-S31A-F50K-V52T (designed binder)
chain: DPDDESSKPCCDQCICTKSNPPQCRCRDARPNACHSACKSCACKTNPSGSCKCTDITDFCYEPCKPSE
notes: also called BBIt-AV-V2

Further lines, the binder ahead of its results:

B5: BBIt-AV (truncated BBI-AV, unmodified variant) (designed binder)
chain: DDESSKPCCDQCACTKSNPPQCRCSDMRLNSCHSACKSCACYNLYGWTCFCVDITDFCYEPCKPSE
notes: also called CT
IC50 [2]: 2 to 10 µM

B7: BBIt-AV-A13I-L29P-A40K-F50T-V52A (designed binder)
chain: DPDDESSKPCCDQCICTKSNPPQCRCSDMRPNSCHSACKSCKCYNLYGWTCTCADITDFCYEPCKPSE
notes: also called TA5; quintuple variant
IC50 [2]: 2 to 10 µM

B12: BBIt-AV-A13I-S25K-M27A-L29R-S31A-A40H-F50R-V52L (designed binder)
chain: DPDDESSKPCCDQCICTKSNPPQCRCKDARRNACHSACKSCHCYNLYGWTCRCLDITDFCYEPCKPSE
notes: also called RL8
IC50 [2]: 2 to 10 µM

B13: BBIt-AV-A13I-S25K-M27A-L29R-S31E-A40K-F50Q-V52Q (designed binder)
chain: DPDDESSKPCCDQCICTKSNPPQCRCKDARRNECHSACKSCKCYNLYGWTCQCQDITDFCYEPCKPSE
notes: also called QQ8
IC50 [2]: 2 to 10 µM

B14: BBIt-AV-A13I-S25R-M27A-L29P-S31A-A40H-F50K-V52T (designed binder)
chain: DPDDESSKPCCDQCICTKSNPPQCRCRDARPNACHSACKSCHCYNLYGWTCKCTDITDFCYEPCKPSE
notes: also called KT8
IC50 [2]: 2 to 10 µM

B15: BBIt-AV-A13I-A40K-F50T-V52A (designed binder)
chain: DPDDESSKPCCDQCICTKSNPPQCRCSDMRLNSCHSACKSCKCYNLYGWTCTCADITDFCYEPCKPSE
IC50 [2]: 2 to 10 µM

B16: BBIt-VEGF-V5-A13I-S25R-M27A-L29P-S31A-F50K-V52T (designed binder)
chain: DPDDESSKPCCDQCICTKSNPPQCRCRDARPNACHSACKSCACKPSSASSCKCTDITDFCYEPCKPSE
notes: also called BBIt-AV-V5
IC50 [7]: 10 to 50 µM

B17: BBIt-TNFα-T3-A13I-S25R-M27A-L29P-S31A-F50K-V52T (designed binder)
chain: DPDDESSKPCCDQCICTKSNPPQCRCRDARPNACHSACKSCACDMIMVSICKCTDITDFCYEPCKPSE
notes: also called BBIt-TNF-T3
IC50 [8]: 50 to 250 µM

B18: BBIt-TNFα-T1-A13I-S25R-M27A-L29P-S31A-F50K-V52T (designed binder)
chain: DPDDESSKPCCDQCICTKSNPPQCRCRDARPNACHSACKSCACRYWQDIPCKCTDITDFCYEPCKPSE
notes: also called BBIt-TNF-T1
IC50 [9]: 10 to 50 µM

B19: BBIt-TNFα-T2-A13I-S25R-M27A-L29P-S31A-F50K-V52T (designed binder)
chain: DPDDESSKPCCDQCICTKSNPPQCRCRDARPNACHSACKSCACAPEPILACKCTDITDFCYEPCKPSE
notes: also called BBIt-TNF-T2
IC50 [8]: 50 to 250 µM

B21: BBIt-VEGF-V1-A13I-S25R-M27A-L29P-S31A-F50K-V52T (designed binder)
chain: DPDDESSKPCCDQCICTKSNPPQCRCRDARPNACHSACKSCACSKHSQITCKCTDITDFCYEPCKPSE
notes: also called BBIt-AV-V1
IC50 [7]: 10 to 50 µM | IC50 [10]: > 250 µM
